# Experimental data published in paper PMC11472053, “Structural basis of DNA recognition by BEN domain proteins reveals a role for oligomerization in unmethylated DNA selection by BANP” (Nucleic Acids Research, 2024).
# T1: NACC1 BEN D462A (human, UniProt Q96RE7 341-477, D462A)
# T1 sequence: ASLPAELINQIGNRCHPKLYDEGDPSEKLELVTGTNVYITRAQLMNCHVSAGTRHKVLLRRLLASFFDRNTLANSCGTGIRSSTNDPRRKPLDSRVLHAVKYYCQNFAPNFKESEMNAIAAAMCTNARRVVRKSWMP
# T2: NACC1 BEN R429A (human, UniProt Q96RE7 341-477, R429A)
# T2 sequence: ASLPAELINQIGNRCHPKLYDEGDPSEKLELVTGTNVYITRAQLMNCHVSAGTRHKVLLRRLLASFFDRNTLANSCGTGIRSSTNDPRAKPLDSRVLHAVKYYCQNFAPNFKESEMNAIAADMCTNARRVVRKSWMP
# T3: NACC1 BEN R421A (human, UniProt Q96RE7 341-477, R421A)
# T3 sequence: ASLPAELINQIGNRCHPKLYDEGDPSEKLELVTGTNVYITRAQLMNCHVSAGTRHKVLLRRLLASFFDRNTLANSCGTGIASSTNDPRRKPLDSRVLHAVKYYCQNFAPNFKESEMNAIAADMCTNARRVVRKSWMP
# T4: NACC1 BEN N466A (human, UniProt Q96RE7 341-477, N466A)
# T4 sequence: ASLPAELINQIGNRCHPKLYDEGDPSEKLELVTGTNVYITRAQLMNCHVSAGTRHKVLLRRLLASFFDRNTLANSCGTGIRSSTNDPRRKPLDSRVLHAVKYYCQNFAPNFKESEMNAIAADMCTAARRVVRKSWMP
# T5: NACC1 BEN WT (human, UniProt Q96RE7 341-477)
# T5 sequence: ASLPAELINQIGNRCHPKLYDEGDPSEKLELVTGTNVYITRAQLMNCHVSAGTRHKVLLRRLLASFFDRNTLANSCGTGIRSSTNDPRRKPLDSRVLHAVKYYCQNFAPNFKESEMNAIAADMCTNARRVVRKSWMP
# T6: NACC1 BEN R472A (human, UniProt Q96RE7 341-477, R472A)
# T6 sequence: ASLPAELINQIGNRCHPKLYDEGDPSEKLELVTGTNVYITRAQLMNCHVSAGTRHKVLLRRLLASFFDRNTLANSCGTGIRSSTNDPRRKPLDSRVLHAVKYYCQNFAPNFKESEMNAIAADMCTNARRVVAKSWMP
# T7: NACC1 BEN R469A (human, UniProt Q96RE7 341-477, R469A)
# T7 sequence: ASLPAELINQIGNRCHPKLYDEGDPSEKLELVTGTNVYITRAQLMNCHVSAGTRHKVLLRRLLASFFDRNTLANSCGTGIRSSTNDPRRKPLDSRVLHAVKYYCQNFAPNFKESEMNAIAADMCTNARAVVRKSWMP
# T8: BANP BEN WT (human, UniProt Q8N9N5 205-325)
# T8 sequence: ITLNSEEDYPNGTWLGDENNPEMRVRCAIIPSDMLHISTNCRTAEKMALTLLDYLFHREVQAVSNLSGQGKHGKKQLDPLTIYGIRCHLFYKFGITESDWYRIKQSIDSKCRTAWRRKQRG
# T9: BANP CC-BEN (ΔDBD) (human, UniProt Q8N9N5 1-360)
# T9 sequence: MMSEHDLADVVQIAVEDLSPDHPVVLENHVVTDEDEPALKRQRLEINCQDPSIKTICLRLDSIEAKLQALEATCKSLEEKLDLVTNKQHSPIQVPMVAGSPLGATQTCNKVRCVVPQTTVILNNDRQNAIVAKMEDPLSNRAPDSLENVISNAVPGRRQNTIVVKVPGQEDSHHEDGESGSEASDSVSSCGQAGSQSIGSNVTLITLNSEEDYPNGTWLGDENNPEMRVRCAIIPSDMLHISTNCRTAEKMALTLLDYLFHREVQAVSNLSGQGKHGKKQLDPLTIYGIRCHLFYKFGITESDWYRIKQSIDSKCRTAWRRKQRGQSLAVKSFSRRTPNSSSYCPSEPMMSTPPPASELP
# T10: BANP full-length WT (human, UniProt Q8N9N5 1-519)
# T10 sequence: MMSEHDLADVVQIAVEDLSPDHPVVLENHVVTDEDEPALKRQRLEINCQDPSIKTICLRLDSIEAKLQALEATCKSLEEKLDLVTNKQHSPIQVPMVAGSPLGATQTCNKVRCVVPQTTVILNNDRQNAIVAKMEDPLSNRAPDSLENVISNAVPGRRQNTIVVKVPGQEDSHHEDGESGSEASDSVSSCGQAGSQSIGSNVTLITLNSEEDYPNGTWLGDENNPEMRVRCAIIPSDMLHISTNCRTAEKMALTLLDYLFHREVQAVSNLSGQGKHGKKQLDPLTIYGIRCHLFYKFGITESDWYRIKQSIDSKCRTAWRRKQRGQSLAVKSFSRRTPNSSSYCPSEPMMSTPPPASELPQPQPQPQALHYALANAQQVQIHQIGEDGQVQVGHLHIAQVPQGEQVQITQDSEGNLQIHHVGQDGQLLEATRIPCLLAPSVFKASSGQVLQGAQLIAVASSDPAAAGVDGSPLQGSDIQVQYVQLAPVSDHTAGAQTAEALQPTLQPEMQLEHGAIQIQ
# T11: BANP ΔCC (human, UniProt Q8N9N5 90-519)
# T11 sequence: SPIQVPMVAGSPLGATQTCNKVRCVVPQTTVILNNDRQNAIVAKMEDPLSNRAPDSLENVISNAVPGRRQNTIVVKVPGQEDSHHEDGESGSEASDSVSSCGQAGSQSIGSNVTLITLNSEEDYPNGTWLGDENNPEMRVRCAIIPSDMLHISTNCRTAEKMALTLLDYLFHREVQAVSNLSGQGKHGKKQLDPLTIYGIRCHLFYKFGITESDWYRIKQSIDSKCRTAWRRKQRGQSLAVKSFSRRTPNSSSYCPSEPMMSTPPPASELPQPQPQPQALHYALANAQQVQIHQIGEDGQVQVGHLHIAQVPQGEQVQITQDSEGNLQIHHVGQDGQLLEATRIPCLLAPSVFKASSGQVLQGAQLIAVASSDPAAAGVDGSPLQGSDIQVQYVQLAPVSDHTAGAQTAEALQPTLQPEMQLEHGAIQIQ
# T12: GST-BANP BEN (human, UniProt Q8N9N5 205-325)
# T12 sequence: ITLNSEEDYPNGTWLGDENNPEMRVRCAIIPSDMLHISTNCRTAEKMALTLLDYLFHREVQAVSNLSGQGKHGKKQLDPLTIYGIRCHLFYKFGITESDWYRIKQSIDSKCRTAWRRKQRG
# T13: BANP BEN-DBD (human, UniProt Q8N9N5 205-519)
# T13 sequence: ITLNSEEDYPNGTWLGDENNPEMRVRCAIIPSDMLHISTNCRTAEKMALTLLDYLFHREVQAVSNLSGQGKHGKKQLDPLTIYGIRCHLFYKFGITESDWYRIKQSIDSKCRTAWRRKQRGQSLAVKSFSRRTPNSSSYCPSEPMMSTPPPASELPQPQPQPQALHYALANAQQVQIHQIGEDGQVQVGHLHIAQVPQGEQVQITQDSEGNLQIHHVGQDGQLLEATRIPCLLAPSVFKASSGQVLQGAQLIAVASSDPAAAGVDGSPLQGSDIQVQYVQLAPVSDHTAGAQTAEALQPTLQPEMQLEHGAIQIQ
# Legend:
# NACC1 BEN D462A = molecular target: T1, NACC1 BEN D462A; test: ITC; ITC: 20 mM Tris pH 7.5, 200 mM NaCl, 2 mM beta-mercaptoethanol, 20 C; EMSA: 20 mM Tris pH 7.0, 200 mM NaCl, 2 mM DTT, 4 C, 1.2% agarose in TAE; conditions: protein: recombinant; tags: His-SUMO or His-MBP, cleaved; blunt, self-complementary
# NACC1 BEN R429A = molecular target: T2, NACC1 BEN R429A; test: as above; conditions: protein: recombinant; tags: His-SUMO or His-MBP, cleaved; blunt, self-complementary
# NACC1 BEN R421A = molecular target: T3, NACC1 BEN R421A; test: as above; conditions: protein: recombinant; tags: His-SUMO or His-MBP, cleaved; blunt, self-complementary
# NACC1 BEN N466A = molecular target: T4, NACC1 BEN N466A; test: as above; conditions: protein: recombinant; tags: His-SUMO or His-MBP, cleaved; blunt, self-complementary
# NACC1 BEN WT = molecular target: T5, NACC1 BEN WT; test: as above; conditions: protein: recombinant; tags: His-SUMO or His-MBP, cleaved; blunt, self-complementary
# NACC1 BEN R472A = molecular target: T6, NACC1 BEN R472A; test: as above; conditions: protein: recombinant; tags: His-SUMO or His-MBP, cleaved; blunt, self-complementary
# NACC1 BEN R469A = molecular target: T7, NACC1 BEN R469A; test: ITC; Kd N.A.; almost completely abolished; ITC: 20 mM Tris pH 7.5, 200 mM NaCl, 2 mM beta-mercaptoethanol, 20 C; EMSA: 20 mM Tris pH 7.0, 200 mM NaCl, 2 mM DTT, 4 C, 1.2% agarose in TAE; conditions: protein: recombinant; tags: His-SUMO or His-MBP, cleaved; blunt, self-complementary
# BANP BEN WT = molecular target: T8, BANP BEN WT; test: ITC; ITC: 20 mM Tris pH 7.5, 200 mM NaCl, 2 mM beta-mercaptoethanol, 20 C; EMSA: 20 mM Tris pH 7.0, 200 mM NaCl, 2 mM DTT, 4 C, 1.2% agarose in TAE; conditions: protein: recombinant; tags: His-SUMO or His-MBP, cleaved; chain copies: 2; blunt, self-complementary
# BANP CC-BEN (ΔDBD) = molecular target: T9, BANP CC-BEN (ΔDBD); test: as above; conditions: protein: recombinant; tags: His-SUMO or His-MBP, cleaved; blunt, self-complementary
# BANP full-length WT = molecular target: T10, BANP full-length WT; test: as above; conditions: protein: recombinant; tags: His-SUMO or His-MBP, cleaved; chain copies: 4; blunt, self-complementary
# BANP ΔCC = molecular target: T11, BANP ΔCC; test: as above; conditions: protein: recombinant; tags: His-SUMO or His-MBP, cleaved; blunt, self-complementary
# GST-BANP BEN = molecular target: T12, GST-BANP BEN; test: as above; conditions: protein: recombinant; tags: N-terminal GST fusion; chain copies: 2; blunt, self-complementary
# BANP BEN-DBD = molecular target: T13, BANP BEN-DBD; test: as above; conditions: protein: recombinant; tags: His-SUMO or His-MBP, cleaved; blunt, self-complementary
Binder,Kd (NACC1 BEN D462A),Kd (NACC1 BEN R429A),Kd (NACC1 BEN R421A),Kd (NACC1 BEN N466A),Kd (NACC1 BEN WT),Kd (NACC1 BEN R472A),binding result (NACC1 BEN R469A),Kd (BANP BEN WT),Kd (BANP CC-BEN (ΔDBD)),Kd (BANP full-length WT),Kd (BANP ΔCC),Kd (GST-BANP BEN),Kd (BANP BEN-DBD)
12-CATG (dsDNA) DNA 1: ATTACATGTAAT DNA 2: ATTACATGTAAT,4.6 ± 0.4 µM,34.7 ± 4.5 µM,4.6 ± 0.6 µM,2.9 ± 0.4 µM,1.3 ± 0.2 µM,8.6 ± 1.4 µM,no binding,–,–,–,–,–,–
"12-mCGCG (dsDNA, 5-methyl-C at position 5 of each strand (palindrome; called hemi-methylated, one CpG methylated)) DNA 1: ATCTCGCGAGAT DNA 2: ATCTCGCGAGAT",–,–,–,–,–,–,–,5.6 ± 0.7 µM,4.3 ± 0.8 µM,4.9 ± 1.4 µM,5.6 ± 0.9 µM,3.5 ± 0.6 µM,8.3 ± 0.6 µM
